Measured values published in patent publication US9056079B2, “Molecules interfering with binding of calbindin to inositol monophosphatase for the treatment of mood disorders” (Ben-Gurion University of the Negev Research and Development …, priority 2008, dated 2015).
Where two headings read alike, the source gives them in different places. Where no end group is shown, it is not given here.

Tests used:
IMPase [1] = conditions: 30 mM LiCl; cited from earlier work
IMPase [2] = target: T1, IMPase (Bos taurus, UniProt P20456); conditions: read-out: Ki, uncompetitive inhibition of IMPase; cited from earlier work
T1 sequence (P20456 1-277): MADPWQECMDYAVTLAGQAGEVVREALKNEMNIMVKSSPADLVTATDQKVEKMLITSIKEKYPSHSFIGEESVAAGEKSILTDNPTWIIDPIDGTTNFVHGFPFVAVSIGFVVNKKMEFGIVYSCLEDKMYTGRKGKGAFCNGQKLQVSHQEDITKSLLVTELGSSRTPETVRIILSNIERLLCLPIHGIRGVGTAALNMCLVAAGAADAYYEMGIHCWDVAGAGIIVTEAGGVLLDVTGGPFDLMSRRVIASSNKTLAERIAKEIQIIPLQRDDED

[3] = target: T2, calbindin-activated IMPase (Homo sapiens, UniProt P05937); test: IMPase activity in mouse brain crude homogenate in the presence of recombinant human calbindin and short peptides (malachite green phosphate assay); assay type: biochemical; parameters: from tissue; host or cells: mouse brain crude homogenate; key to IMPase Activity, nean ± SD: fraction of mean control value in each run; conditions: for IMPase Activity, nean ± SD / effect of peptide on the enhancement of IMPase activity by calbindin (in words): 10 μM peptide; for IMPase Activity, nean ± SD: values normalized to the mean of the control values in each run; for effect of peptide on the enhancement of IMPase activity by calbindin (in words): 20 μM calbindin
T2 sequence (P05937 1-261): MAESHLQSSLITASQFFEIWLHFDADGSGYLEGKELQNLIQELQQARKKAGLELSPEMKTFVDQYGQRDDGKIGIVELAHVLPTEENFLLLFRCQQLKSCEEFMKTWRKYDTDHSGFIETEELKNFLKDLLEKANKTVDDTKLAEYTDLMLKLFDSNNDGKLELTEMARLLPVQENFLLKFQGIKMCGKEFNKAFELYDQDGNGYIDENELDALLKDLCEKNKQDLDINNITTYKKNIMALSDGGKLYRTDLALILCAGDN
Method: (§1) IMPase activity in mouse brain homogenates was measured as previously described [Cryns et al., 2008]. Inorganic phosphate liberated from inositol-1-phosphate was quantified spectrophotometrically in an ELISA reader (iEMS, Labsystems) using the malachite green color reagent. To study the effect of the synthetic peptides on the enhancing interaction between calbindin and IMPase the reaction was carried out in the presence of 20 μM human recombinant calbindin [Thulin and Linse, 1999] (produced by PPS, Rehovot, Israel, using the plasmid kindly donated by S. Linse, Lund, Sweden) and in the presence or absence of 10 μM of each of the peptides. In order to distinguish IMPase activity from non-specific phosphatases the reaction was carried out in the presence and absence of 30 mM LiCl. […] The enzyme activity was calculated as the difference between the activity values in absence and in the presence of Li. Values were normalized to the mean of the control values in each run.

[4] = target: T2, calbindin-activated IMPase; test: IMPase activity in postmortem human brain crude homogenate in the presence of human recombinant calbindin; assay type: biochemical; parameters: from tissue; host or cells: postmortem human brain crude homogenate
Method: The designed peptides were validated by in vitro IMPase activity measurements. As shown in the Examples (Table 1), IMPase activity of mouse brain crude homogenate is increased by 1.9 ±1.0 (S.D.) fold in the presence of 20 μM human recombinant calbindin. […] Peptides 2 through 4 (SEQ ID NO:2 through SEQ ID NO:4), which included the Lys-Glu-Lys motif or part of it, inhibited the activating interaction similarly to Peptide 1.
as §1

IMPase [5] = test: Basal IMPase activity in the presence of peptide but in the absence of calbindin (control for nonspecific effect); assay type: biochemical
Method: To control for a possible nonspecific effect of short peptides on IMPase activity the enzyme's activity in the presence of Peptide 1 (but in the absence of calbindin) was assessed. […] Furthermore, possibilities were checked that there was a protease activity in the homogenate, and that eventual prior interaction between IMPase and calbindin prevents interference by the active peptides. To this end calbindin was preincubated with the homogenate for 10 min prior to the addition of the substrate. No difference in IMPase activity was found in these two experiments.
as §1, with “peptides.” for “peptides. In order to distinguish IMPase activity from non-specific phosphatases the reaction was carried out in the presence and absence of 30 mM LiCl.”, “Values were normalized to the mean of the control values in each run.” left out

[6] = target: T2, calbindin-activated IMPase; parameters: from tissue; host or cells: postmortem human brain crude homogenate; conditions: postmortem human prefrontal cortex crude homogenate; recombinant human calbindin; Shamir et al., 2005; cited from earlier work
[7] = 20 μM human recombinant calbindin

IMPase Activity, nean ± SD [3, 7]	Compound	further results
	[Cl-].[Li+] [LiCl]	inhibition of IMPase activity (in words) (IMPase [1]): totally inhibits IMPase activity
	[Li] [lithium]	Ki (IMPase [2]): 800 µM
2.3 ± 1.7	IAAAYP [Peptide 8]	
2.5 ± 1.1	IAEAYP [Peptide 6]	
1.1 ± 0.6	IAEKYP [Peptide 4]	
0.9 ± 0.5	IKAKYP [Peptide 2]	
1.0 ± 0.5	IKEAYP [Peptide 3]	
1.9 ± 0.6	Ile-Lys-Glu-Lys-Tyr (IKEKY; Peptide derived from the segment including residues 55-66 of IMPase) [Peptide 9]	effect of peptide on the enhancement of IMPase activity by calbindin (in words) [3]: did not interfere with the enhancement of IMPase activity by calbindin
1.4 ± 0.2	KHIKPS [Peptide 7]	
2.6 ± 1.2	Lys-Glu-Lys (KEK; Peptide derived from the segment including residues 55-66 of IMPase) [Peptide 10]	effect of peptide on the enhancement of IMPase activity by calbindin (in words) [3]: did not interfere with the enhancement of IMPase activity by calbindin
1.4 ± 0.6	SYEHKP [Peptide 5]	

Compound	IMPase Activity, nean ± SD [3, 7]	further results
IKEKYP [Peptide 1, hexapeptide identical to residues 58-63 of IMPase]	1.2 ± 0.9	effect of peptide on calbindin-activated IMPase (in words) [4]: abolished this effect; effect on basal activity of IMPase (IMPase [5]): did not affect the basal activity of IMPase; effect of peptide on the enhancement of IMPase activity by calbindin (in words) [3]: strongly reduced
calbindin: member of the vitamin-D-dependent calcium-binding proteins; binds IMPase residues 55-66 and enhances its activity	1.9 ± 1.0	increase of human brain IMPase activity by calbindin [4]: three-fold; increase of IMPase activity by calbindin [6]: 3.5 fold; increase of IMPase activity by calbindin [3, 7]: 1.9 ±1.0 fold
